Results reported in patent publication US20200376136A1 (Regeneron, published 2020).

Assays:
[1] = target: T1, human six-transmembrane epithelial antigen of prostate 2 (STEAP2) (human, UniProt Q8NFT2 1-490); assay: FACS titration on C4-2 cells (endogenous STEAP2), 4-parameter fit
T1 construct: also called hSTEAP2
T1 sequence: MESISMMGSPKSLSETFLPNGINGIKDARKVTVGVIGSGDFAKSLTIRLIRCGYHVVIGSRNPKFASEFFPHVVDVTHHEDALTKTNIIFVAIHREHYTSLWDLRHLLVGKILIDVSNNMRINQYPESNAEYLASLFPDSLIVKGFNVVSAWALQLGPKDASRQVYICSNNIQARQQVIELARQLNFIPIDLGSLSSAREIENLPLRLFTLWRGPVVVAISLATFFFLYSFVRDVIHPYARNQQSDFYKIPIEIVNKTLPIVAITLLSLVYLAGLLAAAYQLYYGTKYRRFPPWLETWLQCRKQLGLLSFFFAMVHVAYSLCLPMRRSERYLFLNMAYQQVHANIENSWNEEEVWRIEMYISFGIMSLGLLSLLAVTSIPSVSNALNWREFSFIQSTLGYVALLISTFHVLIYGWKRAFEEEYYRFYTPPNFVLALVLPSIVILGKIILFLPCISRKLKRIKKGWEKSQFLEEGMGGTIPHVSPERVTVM
Procedure: (§1) Briefly, 1×10⁵ cells were incubated with 10 μg/ml of anti STEAP2 antibodies, or isotype control antibodies for 30 min on ice in antibody dilution buffer. Following one wash with antibody dilution buffer, cells were incubated with 10 μg/ml of PE conjugated anti-human or antimouse Fc secondary antibodies for 30 min on ice. Following one additional wash, samples were incubated with Cytofix (1% formaldehyde) for 20 minutes. After one final wash, samples were filtered through a Pall 96 well filtration block, run on a Hypercyt® cytometer and analyzed in ForeCyt™ (IntelliCyt, Albuquerque, N. Mex.). Mean fluorescence intensities (MFI) were expressed as fold change above unstained levels (background). The average fold above background at antibody concentrations of 100-300 nM were determined.

[2] = target: T1, human six-transmembrane epithelial …; assay: FACS on HEK293 cells (low STEAP2), MFI fold above unstained, average at 100-300 nM antibody
Procedure: as §1

[3] = target: T1, human six-transmembrane epithelial …; assay: FACS on C4-2 cells (endogenous STEAP2), MFI fold above unstained, average at 100-300 nM antibody
Procedure: as §1

Row | EC50 [1] | Avg F.A.B (fold above background) [2] | Avg F.A.B (fold above background) [3] | Binder
1 | 3 nM | 9 fold above background | 6 fold above background | H1H11888P2 (antibody, human IgG1, V domains shown) VH: QVQLQESGPGLVKPSQTLSLTCTVSGYSINSGGHFWSWIRQHPGKGLEWIGDIYYSGNTYSIPSLKRRISMSVDTSKNHFSLKLISVTAADTAIYYCARNSGGYLDAFDIWGQGTMVTVSS VL: not shown
2 | – | 3 fold above background | 4 fold above background | H1H11892P2 (antibody, human IgG1, V domains shown) VH: EVQLVESGGGLVQPGGSLRLSCATSGFTFSNYDFHWVRQIRGQGLEWVSTIDTAGDTYFSGSVKGRFTISRDTAKTSLYLQMNSLRAGDTAVYYCARAPRYDSTGNYYNYYSYFGLDVWGQGTTVTVSS VL: not shown
3 | 9 nM | 4 fold above background | 119 fold above background | H1H7972P (antibody, human IgG1, V domains shown) VH: QVQLQQSGPGLVKPSQTLSLTCAISGDSVSSNSAAWNWIRQSPSRGLEWLGRTYYRSKWYNDYVVSVKSRIIFNPDTSKNQFSLQLNSVTPEDTAVYYCARVRQDYRSGPFDYWGQGTLVTVSS VL: EIVMTQSPVTLSVSPGERATLSCWASQSVSSSLAWYQQKPGQAPRLLIYGASTRATGIPARFSGSGSGTGFTLTISSLQSEDFAVYYCQQYNNWPFTFGPGTKVDIK
4 | 5 nM | 7 fold above background | 6 fold above background | H1H11880P (antibody, human IgG1, V domains shown) VH: EVQLVESGGGLVQPGGSLRLSCAASGFTFSTYAMHWVRQAPGKGLQHVSTISTNGVNTYYADSVKGRFTISRDNSKSTLYLQMGSLRAEDMAVYYCARDKDFWSGYFDYWGQGTLVTVSS VL: EIVMTQSPGTLSVSPGERATLSCRASQSVSSNLAWYHQKPGQAPRLLIYGASTRATGFPARFSGSGSGTEFTLTISSLQSEDFAAYYCQQYNNWPITFGQGTRLEIK
5 | 4 nM | 2 fold above background | 96 fold above background | H1H7814N (antibody, human IgG1, V domains shown) VH: QVQLVESGGGVVQPGRSLRLSCVASGFTISSYGMNWVRQAPGKGLEWVAVISYDGGNKYSVDSVKGRFTISRDNSKNTLYLQMNSLRAEDSAVYYCARGRYFDLWGRGTLVTVSS VL: DIQMTQSPSTLSASVGDRVTITCRASQSISSWLAWYQQKPGRAPNLLISKASSLKSGVPSRFSGSGSGTEFTLTVSSLQPDDFATYYCQQYYSYSYTFGQGTKLEIK
6 | – | 3 fold above background | 26 fold above background | H1H7810N (antibody, human IgG1, V domains shown) VH: QVQLVESGGGVVQPGRSLRLSCAVSGFTSSTYGMNWVRQAPGKGLEWVAVISYDGSNKYYADSVKGRFTISRDNSKNTLYLQMNSLRPEDTAVYYCARGRYFDLWGRGTLVTVSS VL: DIQMTQSPSTLSASVGDRVTITCRASQIISSWLAWYQQKPGKAPKLLIYKASSLASGVPSRFSGSGSGTEFTLTISSLQPDDFATYYCQQYKSYSYTFGQGTKLEIK
7 | > 50 nM | 5 fold above background | 65 fold above background | H1H7811N (antibody, human IgG1, V domains shown) VH: QVQLVESGGGVVQPGRSLRLSCAVSGFTSSTYGMNWVRQAPGKGLEWVAVISFDGSNKYYADSVKGRFTISRDNSKNTLYLQMSSLRPEDTAVYYCARGRYFDLWGRGTLVTVSS VL: DTQMTQSPSTLSASVGDRVTITCRASQIISSWLAWYQQKPGKAPKLLIYKASSLASGVPSRFSGSGSGTEFTLTISSLQPDDFATYYCQQYKSYSYTFGQGTNLEIK
8 | 21 nM | 3 fold above background | 9 fold above background | H1H11893P2 (antibody, human IgG1, V domains shown) VH: QVQLVQSGAEVKKPGASVKVSCKVSGYTLTELSMHWVRQAPGKGLEWMGSFDPEDDETIYAQKFQGRVTMTEDTSTDTAYMDLSSLRSEDTAVYYCSIEEVRWRGSDYYYVMDVWGQGTTVTVSS VL: not shown
9 | > 50 nM | 5 fold above background | 27 fold above background | H1H11878P (antibody, human IgG1, V domains shown) VH: not shown VL: AIQMTQSPSSLSAYVGDRVIITCRASQGIRNDLGWYQQKPGKAPKLLIYAASSLQSGVPSRFSGSRSGTVFTLTISSLQPEDFATYYCLQDYNYPWTFGQGTKVEIK
10 | 21 nM | 7 fold above background | 6 fold above background | H1H11896P2 (antibody, human IgG1, V domains shown) VH: EVQLVESGGGLVQPGGSLRLSCAASRFTFSSYAMSWVRQAPGKGLEWVSLISGSGGRTWYADSVKGRFTISRDNSKNTLFLQMNSLRAEDTAVYYCAKEGGIFGVVTFFDYWGQGTLVTVSS VL: not shown
11 | 1 nM | 10 fold above background | 104 fold above background | H1H11162N (antibody, human IgG1, V domains shown) VH: QVQLQQSGPGLVKPSQTLSLTCAISGDSVSSNRAAWNWIRQSPSRGLQWLGRTYYRSKWYNDYAVSLRSRITINPVTSKNQVALHMNSVTPEDTAVYYCARAGIVVVPGPETFYYYDHGLDVWGQGTTVTVSS VL: DIQMTQSPSSLSASVGDRVTITCRASQSIRSYLNWYQQKPGKAPELLIHAASSLQSGVPSRFSGSGSGTDFTLTISSLQPEDFASYYCQQSYSAPPITFGQGTRLEIK
12 | 2 nM | 10 fold above background | 117 fold above background | H1H11164N (antibody, human IgG1, V domains shown) VH: QVQLQQSGPGLVKPSQTLSLTCVISGDSVSTNSAAWNWIRQSPSRGLEWLGRTYYRSKWYNDYAVSVRSRITINPVTSKNQVALHLNSVTPEDTAVYYCARAGIVVVPGPETYYYYYHGLDVWGQGTTVTVSS VL: DIQMTQSPSSLSASVGDRVTITCRASQNIRSYLNWYQQKPGKAPKLLIHVASSLQSGVPSRFSGSGSGTDFTLTISSLQPEDFATYYCQQSYSTPPITFGHGTRLEIK
13 | > 50 nM | 31 fold above background | 89 fold above background | H1H7809N (antibody, human IgG1, V domains shown) VH: QVQLVESGGGVVQPGRSLGLSCAASGFTFSSYGMHWVRQAPGKGLEWVAVIWYDGSNKYYVDSVKGRFTISRDNSKNTLYLQMNSLRAEDTAVYYCAREGLRFLENYYYYYGMDVWGQGTTVTVSS VL: EIVLTQSPGTLSLSPGERATLSCRASQSISSTYLAWYQQRPGQAPRLLIYGASSRATGIPDRFSGSGSGTDFTLTISRLEPEDFAVYYCQQYGTSPYTFGQGTKLEIK
14 | 3 nM | 6 fold above background | 90 fold above background | H1H11163N (antibody, human IgG1, V domains shown) VH: QVQLQQSGPGLVKPSQALSLTCAISGDSVSSNSAAWNWIRQSPSRGLEWLGRTYYRSKWYNDYAVSVKSRITINPDTSKNHFSLHLNSMTPEDTAVYYCARARIVVVPGPEVYYYYYYDMDVWGQGTTVTVSS VL: not shown
15 | – | 3 fold above background | 41 fold above background | H1H11243N (antibody, human IgG1, V domains shown) VH: QVQLQQSGPGLVKPSQTLSLTCAISGDSVSSNSAAWNWIRQSPSRGLEWLGRTYYRSKWYNDYAVSVKSRITINPDTSKNQFSLHLNSVTPEDTAVYYCARAGIVVVPGPDIYYYYYYGMDVWGQGTTVTVSS VL: not shown
16 | – | 4 fold above background | 7 fold above background | H1H11894P2 (antibody, human IgG1, V domains shown) VH: QVQLVQSGAEVKKPGSSVKVSCRASGGTFSRFAIGWVRQAPGQGLEWMGGIIPIFGTASYAQKFQGRVTITTDESTSTAYMELRSLRSEDTAVYYCTREGITGRGYYYYGMDVWGQGTTVTVSS VL: not shown
17 | > 50 nM | 16 fold above background | 29 fold above background | H1H11897P2 (antibody, human IgG1, V domains shown) VH: EVQLVESGGGLVQPGGSLRLSCAVSGFTFSSYAMSWVRQAPGKGLEWVSVISGSGDFTYHADSVKGRFTISRDNSKSTLYLQLNSLRAEDTAVYYCAKKGLRYFDWYDYWGQGTLVTVSS VL: not shown
18 | 16 nM | 4 fold above background | 6 fold above background | H1H11895P2 (antibody, human IgG1, V domains shown) VH: QVQLQESGPGLVKPSETLSLTCTVSGGSISIYYWTWIRQPPGKGLEWIGNIFYSGSTNYNPSLKSRVTISVDTSKNQFSLKLSSVTAADTAVYYCARERLGRYDAFDNWGQGTMVTVSS VL: not shown
